In series [1] the target is T1, S100A6 (rabbit, intact) (rabbit, UniProt P30801 1-90). The experiment in a line: native MS.
For series [2], the target named is T1, S100A6 (rabbit, intact). The experiment in a line: NMR titration.
Series [3] addresses T1, S100A6 (rabbit, intact). The experiment in a line: ITC. Background: Isothermal titration calorimetry measures the heat released or taken up as one component is titrated into another.
The series “cross-linking” deals with the molecule itself. The experiment in a line: cross-linking.

We go through three molecules from article PMC2666074 (Biochemistry, 2008).

Consider SEGLMNVLKKIYEDGDDDMKRTINKAWVESR (peptide, UniProt Q9CXW3 189-219, looked up) [SIP(189–219)], for which the “stoichiometry N” value with S100A6 (rabbit, intact) [1] is 2 SIP(189–219) per S100A6 dimer; with S100A6 (rabbit, intact) [2] it was 2 SIP per S100A6 dimer. In the series with S100A6 (rabbit, intact) [3], this molecule had a Kd of 5 µM. The binding result in the series “cross-linking” is on record as “binds”.

B1: SIP(178–229), SGS domain of SIP (domain or fragment)
chain: EKPSYDTEADPSEGLMNVLKKIYEDGDDDMKRTINKAWVESREKQAREDTEF
Take B1: the binding result with S100A6 (rabbit, intact) [3] was “binds”.
As to SEGLMNVLKKIYEDG [SIP(189–203)], in the series with S100A6 (rabbit, intact) [3], binding was put at a Kd of 20 µM. In other words, the double-digit micromolar range.

For orientation: stoichiometry N means the number of molecules, sites or subunits per partner or assembly. A word on the Kd: it is the concentration at which binding is half-saturated.
